Laboratory results published in US20230212239A1, “INHIBITORS OF CBL AUTOINHIBITION AND RELATED METHODS” (THE HOSPITAL FOR SICK CHILDREN, priority 2020, published 2023).
Changes are numbered by the printed parent chain. In names and notes the source's numbering stands.

What was measured:
[1] = target: the molecule itself; assay: X-ray crystal structure; two SLAP2 helices in the asymmetric unit
[2] = target: T1, CBL (47-357), co-expressed from pETDuet-1 MCS2 (UniProt P22681 47-357); assay: Ni-NTA co-purification from Duet co-expression, high salt (0.5 M NaCl), Coomassie SDS-PAGE
T1 construct: range 47-357; Untagged partner in the Duet co-purification trials; also called CBL TKBD
T1 sequence (looked up): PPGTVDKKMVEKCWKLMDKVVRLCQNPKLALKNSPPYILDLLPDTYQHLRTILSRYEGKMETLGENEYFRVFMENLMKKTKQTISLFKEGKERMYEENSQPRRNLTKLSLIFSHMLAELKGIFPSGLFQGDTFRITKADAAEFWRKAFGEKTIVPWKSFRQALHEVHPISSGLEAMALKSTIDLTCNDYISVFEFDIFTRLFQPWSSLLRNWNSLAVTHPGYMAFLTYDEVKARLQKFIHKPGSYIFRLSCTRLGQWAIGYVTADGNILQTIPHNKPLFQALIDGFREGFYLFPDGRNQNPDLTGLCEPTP
Protocol: (§1) Cell pellets were resuspended in either high or low salt (as for high salt except 25 mM HEPEs pH 7.5, 150 mM NaCl) lysis buffer and purified as above on Ni-NTA agarose (Qiagen) with wash buffer (25 mM HEPEs pH 7.5, 150 mM NaCl, 2% glycerol, 20 mM imidazole, 10 mM βME). Bead slurry was mixed with SDS 2X loading buffer (125 mM Tris pH 6.8, 4% SDS, 20% glycerol, 0.715 M βME, bromophenol blue), boiled, and analyzed by 10 or 12.5% SDS-PAGE, stained with Coomassie blue.

[3] = target: T2, CBL (47-357) A223R (UniProt P22681 47-357); assay: Ni-NTA co-purification, low salt (0.15 M NaCl), Coomassie SDS-PAGE
T2 construct: range 47-357; Point mutant within Duet-His-Δlinker-hSLAP2-CBL; also called A223R (CBL mutant)
T2 sequence (looked up): T1 sequence (looked up) with A177R
Protocol: as §1

[4] = target: T3, CBL TKBD-LHR-RING (2-436), unphosphorylated (Homo sapiens, UniProt P22681); assay: In vitro ubiquitination assay, anti-ubiquitin immunoblot; assay type: biochemical; details: anti-Ub immunoblot and E3LITE (FIGS. 11A,B, 10B-D)
T3 construct: GST (N, cleaved yes); made in house; host or cells: E. coli BL-21
T3 sequence (P22681 2-436): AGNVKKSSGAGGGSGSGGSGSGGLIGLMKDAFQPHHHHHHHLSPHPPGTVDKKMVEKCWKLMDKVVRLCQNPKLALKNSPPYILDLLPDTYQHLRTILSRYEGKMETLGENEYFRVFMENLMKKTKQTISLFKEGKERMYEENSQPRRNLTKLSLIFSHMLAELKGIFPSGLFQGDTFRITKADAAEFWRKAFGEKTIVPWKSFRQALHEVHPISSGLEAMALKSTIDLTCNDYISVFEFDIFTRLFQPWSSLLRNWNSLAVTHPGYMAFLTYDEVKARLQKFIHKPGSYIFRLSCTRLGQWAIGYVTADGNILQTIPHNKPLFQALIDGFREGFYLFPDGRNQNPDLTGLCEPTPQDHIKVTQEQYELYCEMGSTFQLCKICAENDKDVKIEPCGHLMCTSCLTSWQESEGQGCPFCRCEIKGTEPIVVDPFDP
Excerpt: Given that binding of SLAP2 and the LHR-RING would be mutually exclusive (FIG. 8C), we reasoned that binding of SLAP2 to CBL could displace the LHR-RING, thereby promoting the catalytically competent conformation. To test this hypothesis, an in vitro ubiquitination assay in which E3 ligase activity is detected by a smear at high molecular weight on an anti-ubiquitin (Ub) immunoblot was employed. […] To further compare and quantify CBL ubiquitin ligase activity, a chemiluminescence based assay which measures the total amount of polyubiquitylated products formed in an in vitro reaction was used. In this assay, production of polyubiquitylated proteins increased upon addition of SLAP2 or pSLAP2 to CBL, compared to CBL alone (FIG. 9C and FIG. 10A).
In vitro ubiquitination reactions were prepared with 20 pmol of CBL or pCBL and 60 pmol of hSLAP2 or phosphorylated hSLAP2 (pSLAP2) for both WT and mutants. Reagents were thawed and reactions prepared on ice. CBL and SLAP2 were mixed in PBS (with 5 mM βME, 5 mM caproic acid, 0.5 mM PMSF, and 0.5 mM Na3VO4) at rt for 5-10 min before addition of master mix (42 pmol E1 (UBE1, Boston Biochem or Ubiquitin-Proteasome Biotechnologies), 0.1 µmol E2 (UbcH5b/UBE2D2, Boston Biochem #E2-622), […], and 11.6 µmol ubiquitin (Boston Biochem #U-100H) in reaction buffer (0.2 M Tris pH 7.5, 10 mM MgCl2, 2 mM DTT). Reactions were incubated at 30° C. shaking at 500-700 rpm for 60-110 minutes and terminated by addition of SDS 2X loading buffer and boiling for 5-10 minutes. Equal volumes of each reaction were loaded on 12.5% SDS-PAGE gel, transferred to PVDF membrane, and immunoblotted for ubiquitin as per standard protocols (anti-ubiquitin antibody P4G7, BioLegend #838701, 1:1000; anti-mouse IgG HRP-linked antibody, Cell Signaling Technology #7076, 1:10000; Western Lightning Plus ECL, Perkin Elmer).

[5] = test system: CBL TKBD; assay: Co-purification of CBL TKBD with Trx-His-SLAP2/SLAP (Duet co-expression, Ni-NTA, SDS-PAGE); assay type: binding; details: low salt concentration (0.15 M NaCl)
Excerpt: (§2) To validate the CBL/SLAP2 binding interface, a series of mutants in a Duet co-expression vector system was generated for co-purification trials. The SLAP2 sequence was preceded by thioredoxin (Trx) and His-tag fusion proteins to allow co-purification of CBL TKBD that was bound to Trx-His-SLAP2 during the initial affinity chromatography purification step. Surface residues deemed to be important to the CBL/SLAP2 interface, but not CBL function or folding, were mutated to disrupt CBL/SLAP2 binding (FIG. 5C and FIG. 6). In our structure, SLAP2 Gly240 locates close to CBL Met269 and Ala270, such that mutation to a bulky Arg residue (G240R) could cause sterical constraints. Similarly, SLAP2 Leu241 is situated in a hydrophobic cleft composed of CBL Ala223, Trp258, and Val263; mutation to Arg (L241R) was predicted to disturb this binding pocket. Mutation of CBL Ala223 to Arg (A223R) would likewise disrupt this pocket, with CBL/SLAP2 double mutant A223R/L241R predicted to drastically disturb binding through sterical constraints and charge repulsion. (For clarity, CBL mutations herein are indicated in italics, SLAP2 in regular font.) Similarly, single or double mutation of CBL Ser226 or SLAP2 Ser244, whose side chain hydroxyl groups are in close proximity to one another, to charged Glu residues (S226E and S244E) was anticipated to interfere with CBL/SLAP2 binding. Finally, given that SLAP2 binds CBL as an α-helix, mutation of Leu245, located in the center of this α-helix, to proline (L245P) was expected to interrupt the helical structure and thus prevent SLAP2 binding. […] However, double mutation of the CBL/SLAP2 interface (A223R/L241R and S226E/S244E; FIG. 5D, lower panel) was not tolerated, even at low salt concentration.
as §1, with “For co-purification of CBL and SLAP2/SLAP, Duet-His-hSLAP2-CBL 29-261 Δ198-229 and 29-254 Δ198-229, Duet-His-Δlinker-hSLAP2-CBL WT and point mutants, and Duet-His-mSLAP-CBL WT and point mutants were overexpressed in E. coli BL-21 as above or TKB1 competent cells (Stratagene) as per manufacturer’s instructions, and cells harvested as above (except 100 mL of LB, overnight at 16-18° C., and 0.35-0.5 mM IPTG induction). Cell” for “Cell”

[6] = target: T4, CBL TKBD (Homo sapiens, UniProt P22681); assay: as above; assay type: binding; details: conditions where SLAP2 was tyrosine phosphorylated (TKB1), low salt
T4 construct: with CBL (47-357) cloned in frame into MCS2 of the same pETDuet-1 vector; made in house
T4 sequence (P22681 47-357): T1 sequence (looked up)
Excerpt: as §2
as §1, with “For co-purification of CBL and SLAP2/SLAP, Duet-His-hSLAP2-CBL 29-261 Δ198-229 and 29-254 Δ198-229, Duet-His-Δlinker-hSLAP2-CBL WT and point mutants, and Duet-His-mSLAP-CBL WT and point mutants were overexpressed in E. coli BL-21 as above or TKB1 competent cells (Stratagene) as per manufacturer’s instructions, and cells harvested as above (except 100 mL of LB, overnight at 16-18° C., and 0.35-0.5 mM IPTG induction). Cell” for “Cell”

[7] = target: T5, CBL (47-357) S226E (UniProt P22681 47-357); assay: Ni-NTA co-purification, low salt (0.15 M NaCl), Coomassie SDS-PAGE
T5 construct: range 47-357; Point mutant within Duet-His-Δlinker-hSLAP2-CBL; also called S226E (CBL mutant)
T5 sequence (looked up): T1 sequence (looked up) with S180E
Protocol: as §1

B1: mouse SLAP2 (residues 28-259) (other, UniProt Q8R4L0 28-259, looked up)
chain: QPERHKVTAVALGSFPAGEQARLSLRLGEPLTIISEDGDWWTVQSEVSGREYHMPSVYVAKVAHGWLYEGLSREKAEELLLLPGNPGGAFLIRESQTRRGCYSLSVRLSRPASWDRIRHYRIQRLDNGWLYISPRLTFPSLHALVEHYSELADGICCPLREPCVLQKLGPLPGKDTPPPVTVPTSSLNWKKLDRSLLFLEAPASGEASLLSEGLRESLSSYISLAEDPLDDA
notes: range 28-259; Trx-His(6) tag removed with thrombin; In the crystal only residues 237-255 are seen; also called mSLAP2; Trx-His(6)-mSLAP2 (before thrombin cleavage)
binding result [1]: binds

B2: Trx-His(6)-Δlinker-hSLAP2 L241R (other)
chain: EAERSKATAVALGSFPAGGPAELSLRLGEPLTIVSEDGDWWTVLSEVSGREYNIPSVHVAKVSHGWLYEGLSREKAEELLLLPGNPGGAFLIRESQTRRGSYSLSVRLSRPASWDRIRHYRIHCLDNGWLYISPRLTFPSLQALVDHYSELADDICCLLKEPCVLQRAGPLPGKDIPLPVTVQRTPLNWKELDSSLLFSEAATGEESLLSEGRRESLSFYISLNDEAVSLDDA
notes: Point mutant within Duet-His-Δlinker-hSLAP2-CBL; not shown: N-terminal thioredoxin (Trx)-His(6)-TEV-site tag and linker of the modified pET32a (Δlinker version)
binding result [2]: no binding
binding result [3]: no binding

B3: SLAP2 I249W: SLAP2 mutant in the SLAP2/SLAP2 interface (protein)
chain: B2 chain with R213L, I221W
modifications: left off: large carriers; small tags and cut ends
notes: SLAP2 mutant in the SLAP2/SLAP2 interface
stimulation/activation of CBL ubiquitination activity by SLAP2 mutants versus WT [4]: did not alter SLAP2 or pSLAP2 activation of CBL
CBL TKBD co-purification [5]: did not significantly impact co-purification of CBL

B4: SLAP2 S246/250E: SLAP2 double mutant in the SLAP2/SLAP2 interface (protein)
chain: B2 chain with R213L, S218E, S222E
modifications: left off: large carriers; small tags and cut ends
notes: SLAP2 double mutant in the SLAP2/SLAP2 interface
stimulation/activation of CBL ubiquitination activity by SLAP2 mutants versus WT [4]: did not alter SLAP2 or pSLAP2 activation of CBL
CBL TKBD co-purification [5]: did not significantly impact co-purification of CBL

B5: SLAP2 Y248F: SLAP2 Tyr248 to Phe mutant, expressed under phosphorylating conditions (protein)
chain: B2 chain with R213L, Y220F
modifications: left off: large carriers; small tags and cut ends
notes: SLAP2 Tyr248 to Phe mutant, expressed under phosphorylating conditions
CBL TKBD co-purification [6]: co-purified

B6: Trx-His(6)-Δlinker-hSLAP2 S244E (other)
chain: B2 chain with R213L, S216E
notes: as for B2
binding result [7]: no binding

B7: Trx-His(6)-Δlinker-hSLAP2 L245P (other)
chain: B2 chain with R213L, L217P
notes: Point mutant within Duet-His-Δlinker-hSLAP2-CBL; not shown: N-terminal Trx-His(6)-TEV site fusion of the modified pET32a (Δlinker form)
binding result [2]: no binding
